Source: PMC9932102, “SVEP1 is an endogenous ligand for the orphan receptor PEAR1” (Nature Communications, 2023)

Biological target: T1, biotinylated SVEP1 (mouse, UniProt A2AVA0 18-3567, biotin on the biotinylation domain (by BirA))
T1 construct: SVEP1, mouse Svep1 cDNA; biotinylation domain inserted in the C-terminus region upstream of the Myc tag; Same Svep1 construct as m1 with the biotinylation domain added; source: 293F cells, co-transfected with secreted BirA and supplemented with biotin, purified (Nuvia IMAC, Superose 6)
T1 sequence (A2AVA0 18-3567): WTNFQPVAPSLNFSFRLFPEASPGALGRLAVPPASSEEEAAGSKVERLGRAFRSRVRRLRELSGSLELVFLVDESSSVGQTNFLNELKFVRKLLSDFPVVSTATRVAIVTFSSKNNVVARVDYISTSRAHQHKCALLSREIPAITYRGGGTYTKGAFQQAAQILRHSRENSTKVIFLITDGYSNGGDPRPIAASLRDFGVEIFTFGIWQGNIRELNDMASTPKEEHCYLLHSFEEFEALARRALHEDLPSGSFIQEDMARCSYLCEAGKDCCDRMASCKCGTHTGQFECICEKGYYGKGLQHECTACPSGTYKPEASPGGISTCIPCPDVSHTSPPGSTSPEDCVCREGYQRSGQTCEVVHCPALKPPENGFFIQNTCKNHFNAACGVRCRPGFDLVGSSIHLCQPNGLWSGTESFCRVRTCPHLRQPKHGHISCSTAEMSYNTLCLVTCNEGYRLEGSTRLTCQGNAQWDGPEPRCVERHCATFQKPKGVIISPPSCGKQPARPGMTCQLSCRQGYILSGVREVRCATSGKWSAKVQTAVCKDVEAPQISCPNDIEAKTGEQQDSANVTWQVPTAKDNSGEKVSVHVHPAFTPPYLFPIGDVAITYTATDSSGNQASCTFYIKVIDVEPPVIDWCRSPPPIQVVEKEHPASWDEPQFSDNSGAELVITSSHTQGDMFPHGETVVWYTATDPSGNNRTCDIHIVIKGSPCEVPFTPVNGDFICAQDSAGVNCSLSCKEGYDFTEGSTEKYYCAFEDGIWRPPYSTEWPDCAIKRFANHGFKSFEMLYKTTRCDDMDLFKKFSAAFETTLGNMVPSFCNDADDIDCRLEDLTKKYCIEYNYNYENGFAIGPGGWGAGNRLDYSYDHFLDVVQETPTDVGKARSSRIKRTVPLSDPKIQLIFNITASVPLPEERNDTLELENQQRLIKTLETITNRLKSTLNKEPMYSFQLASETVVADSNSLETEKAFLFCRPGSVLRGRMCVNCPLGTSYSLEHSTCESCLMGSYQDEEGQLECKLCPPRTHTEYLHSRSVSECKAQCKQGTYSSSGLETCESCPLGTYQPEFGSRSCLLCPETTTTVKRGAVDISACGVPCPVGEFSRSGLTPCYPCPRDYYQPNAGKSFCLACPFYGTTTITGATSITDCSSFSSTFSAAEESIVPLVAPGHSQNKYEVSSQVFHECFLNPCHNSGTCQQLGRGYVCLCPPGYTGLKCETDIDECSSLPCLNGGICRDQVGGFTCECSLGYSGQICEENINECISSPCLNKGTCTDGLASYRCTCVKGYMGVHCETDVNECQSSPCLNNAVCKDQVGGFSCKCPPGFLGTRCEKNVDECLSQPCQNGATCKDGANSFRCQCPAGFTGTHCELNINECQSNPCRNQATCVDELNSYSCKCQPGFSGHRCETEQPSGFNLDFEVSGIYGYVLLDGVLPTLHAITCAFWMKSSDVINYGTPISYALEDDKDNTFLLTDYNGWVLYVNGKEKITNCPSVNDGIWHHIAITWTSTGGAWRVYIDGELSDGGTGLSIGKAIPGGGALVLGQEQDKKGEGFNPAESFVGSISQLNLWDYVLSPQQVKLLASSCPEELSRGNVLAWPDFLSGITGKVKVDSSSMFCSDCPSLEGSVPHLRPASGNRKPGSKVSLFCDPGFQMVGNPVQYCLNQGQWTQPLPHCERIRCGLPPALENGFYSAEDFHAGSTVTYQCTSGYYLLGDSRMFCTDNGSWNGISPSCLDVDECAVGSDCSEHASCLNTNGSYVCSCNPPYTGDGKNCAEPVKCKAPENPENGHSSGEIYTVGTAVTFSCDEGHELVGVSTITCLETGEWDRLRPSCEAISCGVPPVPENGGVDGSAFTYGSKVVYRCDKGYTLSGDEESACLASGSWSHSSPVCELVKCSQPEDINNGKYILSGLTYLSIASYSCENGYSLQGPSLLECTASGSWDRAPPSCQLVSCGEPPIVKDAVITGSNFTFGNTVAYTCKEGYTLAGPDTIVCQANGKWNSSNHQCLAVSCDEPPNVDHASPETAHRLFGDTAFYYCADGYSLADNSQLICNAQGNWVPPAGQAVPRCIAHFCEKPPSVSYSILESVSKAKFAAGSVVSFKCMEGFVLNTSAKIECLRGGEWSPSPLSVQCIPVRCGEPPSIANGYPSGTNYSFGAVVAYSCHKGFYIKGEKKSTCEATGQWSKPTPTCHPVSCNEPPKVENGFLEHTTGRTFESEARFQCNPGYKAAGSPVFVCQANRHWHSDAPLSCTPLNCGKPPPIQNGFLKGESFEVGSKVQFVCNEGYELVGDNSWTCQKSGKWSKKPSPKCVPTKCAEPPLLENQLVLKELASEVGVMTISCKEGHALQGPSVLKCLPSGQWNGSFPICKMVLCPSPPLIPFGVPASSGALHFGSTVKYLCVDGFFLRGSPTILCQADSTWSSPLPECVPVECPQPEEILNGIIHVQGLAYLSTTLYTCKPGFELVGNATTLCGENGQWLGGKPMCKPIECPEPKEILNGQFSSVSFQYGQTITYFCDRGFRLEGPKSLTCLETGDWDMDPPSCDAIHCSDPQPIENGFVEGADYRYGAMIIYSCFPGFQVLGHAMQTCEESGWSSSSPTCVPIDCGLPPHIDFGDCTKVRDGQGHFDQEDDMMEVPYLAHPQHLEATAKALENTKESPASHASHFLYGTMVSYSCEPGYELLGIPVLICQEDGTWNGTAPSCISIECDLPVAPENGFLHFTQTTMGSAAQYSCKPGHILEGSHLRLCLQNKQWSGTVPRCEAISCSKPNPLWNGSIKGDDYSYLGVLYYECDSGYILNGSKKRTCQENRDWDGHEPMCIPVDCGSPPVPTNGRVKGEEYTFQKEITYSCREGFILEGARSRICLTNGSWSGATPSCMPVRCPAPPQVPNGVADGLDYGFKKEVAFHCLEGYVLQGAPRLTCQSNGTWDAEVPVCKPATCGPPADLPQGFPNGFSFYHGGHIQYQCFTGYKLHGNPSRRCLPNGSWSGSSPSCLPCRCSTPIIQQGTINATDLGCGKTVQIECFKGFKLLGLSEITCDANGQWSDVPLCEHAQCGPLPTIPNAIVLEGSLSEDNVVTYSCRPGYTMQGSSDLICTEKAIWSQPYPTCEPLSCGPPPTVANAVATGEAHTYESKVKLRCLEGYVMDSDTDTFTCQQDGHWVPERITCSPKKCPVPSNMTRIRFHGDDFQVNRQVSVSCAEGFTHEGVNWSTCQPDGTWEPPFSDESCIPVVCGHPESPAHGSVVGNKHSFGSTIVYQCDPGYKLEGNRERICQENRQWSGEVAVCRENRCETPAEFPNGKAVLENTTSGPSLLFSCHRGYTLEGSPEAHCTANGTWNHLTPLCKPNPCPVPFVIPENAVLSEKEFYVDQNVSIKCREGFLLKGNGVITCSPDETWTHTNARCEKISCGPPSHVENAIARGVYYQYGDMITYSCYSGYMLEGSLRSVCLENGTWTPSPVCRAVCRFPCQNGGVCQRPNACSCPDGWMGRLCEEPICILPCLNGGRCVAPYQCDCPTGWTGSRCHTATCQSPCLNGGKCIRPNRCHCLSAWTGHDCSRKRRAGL
Assay: BLI; biotinylated SVEP1 loaded on Octet SA biosensors (20 min, about 0.7 nm shift), quenched with biocytin; PEAR1 or PEAR1 D343N 10-90 nM as analyte; 0.01% Tween 20 in calcium-containing DPBS; 15 min association, 15 min dissociation; global 1:1 fit
Details: both partners purified

| Binder | Kd [nM] |
| --- | --- |
| PEAR1 (analyte of the BLI on biotinylated SVEP1) (receptor) LNPSDPNTCSFWESFTTTTKESHSRPFSLLPSEPCERPWEGPHTCPQPTVVYRTVYRQVVKTDHRQRLQCCHGFYESRGFCVPLCAQECVHGRCVAPNQCQCVPGWRGDDCSSECAPGMWGPQCDKPCSCGNNSSCDPKSGVCSCPSGLQPPNCLQPCTPGYYGPACQFRCQCHGAPCDPQTGACFCPAERTGPSCDVSCSQGTSGFFCPSTHSCQNGGVFQTPQGSCSCPPGWMGTICSLPCPEGFHGPNCSQECRCHNGGLCDRFTGQCRCAPGYTGDRCREECPVGRFGQDCAETCDCAPDARCFPANGACLCEHGFTGDRCTDRLCPDGFYGLSCQAPCTCDREHSLSCHPMNGECSCLPGWAGLHCNESCPQDTHGPGCQEHCLCLHGGVCQATSGLCQCAPGYTGPHCASLCPPDTYGVNCSARCSCENAIACSPIDGECVCKEGWQRGNCSVPCPPGTWGFSCNASCQCAHEAVCSPQTGACTCTPGWHGAHCQLPCPKGQFGEGCASRCDCDHSDGCDPVHGRCQCQAGWMGARCHLSCPEGLWGVNCSNTCTCKNGGTCLPENGNCVCAPGFRGPSCQRSCQPGRYGKRCVPCKCANHSFCHPSNGTCYCLAGWTGPDCSQPCPPGHWGENCAQTCQCHHGGTCHPQDGSCICPLGWTGHHCLEGCPLGTFGANCSQPCQCGPGEKCHPETGACVCPPGHSGAPCRIGIQEPFTVMPTTPVAYNSL | 0.708 ± 0.003 |
| PEAR1 D343N (receptor, human, UniProt Q5VY43 21-755, looked up, PEAR1 with the natural human missense variant p.D343N (rs147639000) in an EGF-like domain of the ectodomain; the construct is not described; as a soluble analyte it is probably an ectodomain (surmise); also called PEAR1 p.D343N; rs147639000) LNPSDPNTCSFWESFTTTTKESHSRPFSLLPSEPCERPWEGPHTCPQPTVVYRTVYRQVVKTDHRQRLQCCHGFYESRGFCVPLCAQECVHGRCVAPNQCQCVPGWRGDDCSSECAPGMWGPQCDKPCSCGNNSSCDPKSGVCSCPSGLQPPNCLQPCTPGYYGPACQFRCQCHGAPCDPQTGACFCPAERTGPSCDVSCSQGTSGFFCPSTHSCQNGGVFQTPQGSCSCPPGWMGTICSLPCPEGFHGPNCSQECRCHNGGLCDRFTGQCRCAPGYTGDRCREECPVGRFGQDCAETCDCAPDARCFPANGACLCEHGFTGNRCTDRLCPDGFYGLSCQAPCTCDREHSLSCHPMNGECSCLPGWAGLHCNESCPQDTHGPGCQEHCLCLHGGVCQATSGLCQCAPGYTGPHCASLCPPDTYGVNCSARCSCENAIACSPIDGECVCKEGWQRGNCSVPCPPGTWGFSCNASCQCAHEAVCSPQTGACTCTPGWHGAHCQLPCPKGQFGEGCASRCDCDHSDGCDPVHGRCQCQAGWMGARCHLSCPEGLWGVNCSNTCTCKNGGTCLPENGNCVCAPGFRGPSCQRSCQPGRYGKRCVPCKCANHSFCHPSNGTCYCLAGWTGPDCSQPCPPGHWGENCAQTCQCHHGGTCHPQDGSCICPLGWTGHHCLEGCPLGTFGANCSQPCQCGPGEKCHPETGACVCPPGHSGAPCRIGIQEPFTVMPTTPVAYNSL | 1.76 ± 0.006 |
